Test results as given in patent US20060127400A1, “Activation of regulatory T cells by alpha-melanocyte stimulating hormone” (THE SCHEPENS EYE RESEARCH INSTITUTE, INC., priority 1999, published 2006).

B1: sTGF-βRII: soluble TGF-β receptor type-two (R&D Systems), used to neutralize TGF-β activity (protein, UniProt P37173 23-166, looked up)
extracellular domain: TIPPHVQKSVNNDMIVTDNNGAVKFPQLCKFCDVRFSTCDNQKSCMSNCSITSICEKPQEVCVAVWRKNDENITLETVCHDPKLPYHDFILEDAASPKCIMKEKKKPGETFFMCSCSSDECNDNIIFSEEYNTSNPDLLLVIFQ
modifications: extracellular domain
B2: TGF-β2: recombinant / purified human transforming growth factor-β2 (R&D Systems) (protein, UniProt P61812 303-414, looked up)
Transforming growth factor …: ALDAAYCFRNVQDNCCLRPLYIDFKRDLGWKWIHEPKGYNANFCAGACPYLWSSDTQHSRVLSLYNTINPEASASPCCVSQDLEPLTILYYIGKTPKIEQLSNMIVKSCKCS
modifications: Transforming growth factor beta-2

What was measured:
[1] = system: primed T cells; experiment: proliferation of TCR-stimulated primed T cells (3H-thymidine incorporation); assay type: cell-based, mouse (BALB/c); conditions: for T cell proliferation, increasing concentrations of TGF-β: 0.005-5.0 ng/ml, regardless of the presence of α-MSH 30 pg/ml; for T cell proliferation, TGF-β added from the start of TCR-stimulation through 6 hours later: no α-MSH
[2] = system: primed T cells; experiment: total TGF-β production by TCR-stimulated primed T cells, Mv1Lu (CCL-64) bioassay; assay type: cell-based, mouse (BALB/c); conditions: α-MSH 30 pg/ml, TGF-β 5.0 ng/ml, 48 hours
Procedure: TGF-β bioassay. To measure total TGF-β, 100 μl of conditioned media was pretreated according to standard procedures (24) with 10 μl 1N HCL to lower the media pH to 2 and incubated for 1 hour at 4° C. The acid was neutralized with 20 μl of a 1:1 mixture of 1N NaOH: 1M HEPES returning the culture supernatant to a pH 7.3. The transiently acidified conditioned media was then used in the Mv1Lu assay; diluted 1:4 in EMEM+0.5% FBS. To the wells of a Falcon 96-well flat-bottom plate, 100 μl of diluted transiently acidified samples were added with 100 μl of 1×10^5 Mv1Lu cells (CCL-64; ATCC, Rockville, Md.). The plate was incubated for 20 hours at 37° C., 5% CO2 followed by the addition of 20 μl of 50 μCi/ml 3H-thymidine and the plate was incubated for an additional 4 hours. Supernatant was discarded and 50 μl of 10× Trypsin-EDTA (Biowhittaker, Walkersville, Md.) solution was added to each well and the plate was incubated for 15 minute at 37° C. The cells were collected onto filter paper using a Tomtec Plate Harvester 96 and counts per minute (CPM) of incorporation 3H-thymidine was measured using a Wallac 1205 Betaplate Liquid Scintillation Counter. Cultures of known amounts of purified activated TGF-β1, 20 ng/ml to 0.2 pg/ml (R&:D Systems), were prepared in the same plate for calculating a standard curve to quantify the concentration of total TGF-β in the samples.
Primed T Cell In Vitro Assays. From draining lymph nodes of BALB/c mice immunized 7 days previously with MT-Ag, primed T cells were isolated using CD3 enrichment columns (R&D Systems). T-cells (4×10^5 cells) suspended in serum-free media were added to the wells of a 96 well, round bottom plate (Corning). To the wells were added α-MSH (30 pg/ml) and anti-TCR antibody (2C11; 1 μg/ml) diluted in serum-free culture media. Various concentrations of TGF-β1 or TGF-β2 in media were added. In a second set of experiments TGF-β1 or TGF-β2 at a fixed concentration of 5 ng/ml were added to the wells at various times (0, 2, 4 and 6 hours) after addition of anti-TCR antibody. The cultures were incubated for 24 hours and 0.5 μCi of 3H-thymidine (NEM, Boston, Mass.) was added to the wells and the cultures were incubated for an additional 24 hours. The cells were collected and incorporated radiolabeled was measured by scintillation counting. Production of TGF-β by the treated primed T cells was done by centrifuging the culture plates 24 hours after the addition of anti-TCR antibody, removing the supernatant, washing the cultures once and adding fresh media. […]
FIG. 4 is a bar graph of TGF-β production by primed T cells TCR-stimulated in the presence of α-MSH. […] Significance (p=0.05) was determined by Student's t-test between TGF-β concentrations in cultures of activated α-MSH treated T cells and T cells activated in the absence of α-MSH. […]

[3] = system: primed Th1 cells; experiment: in vitro regulatory T cell activity assay (IFN-γ of freshly activated primed Th1 cells in coculture); assay type: cell-based, mouse (BALB/c); conditions: for induction of regulatory T cell activity (suppression of IFN-γ of other Th1 cells), factor individually: α-MSH 30 pg/ml or TGF-β 5.0 ng/ml; for induction of regulatory T cell activity, TGF-β added 4 hours after TCR-stimulation in the presence of α-MSH: α-MSH 30 pg/ml, TGF-β 5.0 ng/ml
Procedure: (§1) Assay For In Vitro Regulatory T Cell Activity. The α-MSH-treated TCR-stimulated T cells, as described above, were cultured for 48 hours. The plate was spun down at 250×g for 10 minutes and supernatant discarded. Freshly isolated, enriched in vivo primed Th1 cells (4×10^6 cells/ml) mixed with 2C11 (1 μg/ml) were added (200 μl) to the wells of the α-MSH pre-treated, TCR-stimulated T cells and incubated for 48 hours. The culture supernatant was assayed for IFN-γ by sandwich ELISA. For long term cultures, primed T cells were TCR-stimulated in the presence of α-MSH for 48 hours. The plate was centrifuged and supernatant was exchanged for 200 μl of 2C11 (1 μg/ml) in fresh media, no x-MSH. The cultures were incubated for 72 hours and the conditioned media was again exchanged for fresh media and 2C11 antibody. The cultures were incubated for an additional 48 hours, centrifuged, supernatant discarded, and added were fresh in vivo primed Th1 cells and 2C11 antibody. Soluble TGF-β receptor II (sTGF-βRII, R&D Systems) was added to some of the cultures. These cultures were incubated for 48 hours and the culture supernatant was assayed for IFN-γ by sandwich ELISA.
Primed T cells (4×10^5 cells) were enriched and activated with anti-CD3 in the presence (α-MSH+anti-CD3) or absence (+anti-CD3) of α-MSH (30 pg/ml). After 48 hours of incubation the cells were mixed with freshly enriched primed Th1 cells (4×10^5 cells) and anti-CD3 antibody and cultured for 48 hours. The culture supernatant was assayed for IFN-γ by sandwich ELISA. Results are presented as IFN-γ pg/ml±SEM of eight independent experiments.
In addition, T cells initial TCR-stimulated in the presence of α-MSH and subsequently restimulated twice (Day 2 and Day 5) with anti-TCR antibody in the absence of α-MSH, still suppressed IFN-γ production by freshly activated primed Th1 cells (FIG. 6). […] Primed T cells (4×10^5 cells) were enriched and activated with anti-CD3 antibody in the presence of 30 pg/ml α-MSH (α-MSH+anti-CD3) or absence of α-MSH (+anti-CD3). After 48 hours of incubation the cells were centrifuged and resuspended in fresh media with anti-CD3 antibodies and incubated for 72 hours (day 5). The cells were again washed and re-stimulated with anti-CD3 and incubated for an additional 48 hours (day 7). After the final incubation the treated T cells (4×10^5 cells) were mixed with freshly enriched primed Th1 cells (4×10^5 cells) and anti-CD3 antibody and cultured for 48 hours. The culture supernatant was assayed for IFN-γ by sandwich ELISA. Results are presented as IFN-γ pg/ml±SEM of eight independent experiments. […] Therefore, α-MSH mediates induction of functionally active, regulatory Th3 cells.
TGF-β and α-MSH induce regulatory T cell activity. Primed T cells were TCR-stimulated in the presence or absence of 30 pg/ml α-MSH with TGF-β1 or TGF-β2 (5.0 ng/ml) added 4 hours after TCR-stimulation. The treated T cells (Regulatory T cells) were added to cultures of freshly activated primed T cells. Culture supernatants were assayed for IFN-γ 48 hours after addition of treated T cells. Data are presented as percent suppression±SEM of IFN-γ produced by freshly activated T cells with no added regulatory cells, from eight independent experiments.

[4] = system: TGF-β; experiment: in vitro regulatory T cell assay with soluble TGF-β receptor type II added; assay type: cell-based, mouse; conditions: increasing amounts added to cocultures, 48 hours
Procedure: as §1
α-MSH induced regulatory T cells that through TGF-β suppress activation of other T cells. […] The regulatory T cells were washed and added to cultures of freshly TCR-stimulated primed T cells as described for FIG. 15. […]

Molecule | T cell proliferation, increasing concentrations of TGF-β [1] | T cell proliferation, low concentrations of TGF-β ([1]; TCR-stimulated primed T cells, FIG. 9) | T cell proliferation, TGF-β added from the start of TCR-stimulation through 6 hours later ([1]; TGF-β 5.0 ng/ml) | α-MSH-induced TGF-β production after addition of TGF-β at various times after TCR-stimulation [2] | induction of regulatory T cell activity (suppression of IFN-γ of other Th1 cells), factor individually [3] | induction of regulatory T cell activity, TGF-β added 4 hours after TCR-stimulation in the presence of α-MSH [3] | effect on suppression of IFN-γ production mediated by α-MSH-treated T cells [4] | T cell proliferation, TGF-β added at or later than 4 hours after TCR-stimulation ([1]; TGF-β 5.0 ng/ml, α-MSH 30 pg/ml present)
TGF-β1: purified activated TGF-β1 (R&D Systems), transforming growth factor | suppressed | either no effect or enhanced | suppressed | did not change | could not alone or with α-MSH induce regulatory T cells | antagonized α-MSH-mediated induction of regulatory T cells | – | –
B1 | – | – | – | – | – | – | neutralized | –
B2 | suppressed | – | suppressed | did enhance | induced regulatory T cell activity | enhanced the regulatory activity | – | recovered
